Assay results taken from patent publication US20160264666A1 (INSERM INSTITUT NATIONAL DE LA SANTE ET DE LA RECHERCHE …, published 2016).

T1: ICOS (Inductible T cell costimulator) (UniProt Q9Y6W8 21-199, limits assumed)
T1 construct: whole, on cells; also called ICOS on JICOS.1 cells
T1 sequence (looked up): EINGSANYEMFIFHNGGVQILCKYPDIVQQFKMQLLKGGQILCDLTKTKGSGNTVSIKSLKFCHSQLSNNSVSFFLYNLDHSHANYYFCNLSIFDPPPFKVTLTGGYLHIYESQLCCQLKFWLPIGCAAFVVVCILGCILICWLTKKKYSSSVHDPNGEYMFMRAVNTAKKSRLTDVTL


Tests used:
[1] = target: T1, ICOS (Inductible T cell costimulator); experiment: flow cytometry on JICOS.1 cells (ICOS transfectants), mAb titration revealed with GAM-PE; printed as [ED] 50
Description: (§1) The inventors developed 5 anti-ICOS Abs. Their isotype was assayed by ELISA. For obtaining an indirect analysis of their affinity for their receptor, mAbs were tested using stable transfectants expressing ICOS. JICOS.1 cells were in the presence of an increasing range of anti-ICOS mAbs labeled with a probe coupled to a fluorochrome (PE-GAM: Goat anti mouse-PE) and the analysis was made thanks to cytometry flow.

[2] = target: T1, ICOS (Inductible T cell costimulator); experiment: flow cytometry on JICOS.1 cells, inhibition of ICOS L-Fc binding to ICOS, revealed with GAH-PE; printed as [ID] 50
Description: (§2) They used a gradient of concentration of anti-ICOS mAbs and theyr reveled the fixation to ICOS L Fc thanks to a probe coupled to a fluorochrom (GAH-PE: Goat anti-human-PE). The analysis was made by flow cytometry.

[3] = target: T1, ICOS (Inductible T cell costimulator); experiment: flow cytometry on JICOS.1 cells, inhibition of ICOS L-Fc binding to ICOS; printed as ID 50
Description: as §2

[4] = target: T1, ICOS (Inductible T cell costimulator); experiment: flow cytometry on JICOS.1 cells, mAb titration revealed with GAM-PE; printed as ED 50
Description: as §1

EC50 [1] [µg/mL]	IC50 [2] [µg/mL]	IC50 [3] [µg/mL]	EC50 [4] [µg/mL]	Binder
1.6	17	–	–	ICOS 88-2 (antibody, V domains shown, Mouse hybridoma monoclonal antibody; isotype printed as IgG1-L; Agonist of ICOS; also called anti-ICOS mAb 88-2) VH: QVQLQQPGAELVRPGASVKLSCKASGYSFTSYWINWVKQRPGQGLEWIGNIYPSDSYTNYNQMFKDKATLTVDKSSNTAYMQLTSPTSEDSAVYYCTRWNLSYYFDNNYYLDYWGQGTTLTVSS VL: DIVMTQAAPSVPVTPGESVSISCRSSKSLLHSNGNTYLYWFLQRPGQSPQLLIYRMSNLASGVPDRFSGSGSGTAFTLRISRVEAEDVGVYYCMQHLEYPWTFGGGTKLEIK
0.06	0.29	< 1000	< 0.5	ICOS 314-8 (antibody, V domains shown, Mouse hybridoma monoclonal antibody; isotype printed as IgG1-K; Antagonist of ICOS) VH: QVQLQQPGTELMKPGASVKLSCKASGYTFTTYWMHWVKQRPGQGLEWIGEIDPSDSYVNYNQNFKGKATLTVDKSSSTAYIQLSSLTSEDSAVYFCARSPDYYGTSLAWFDYWGQGTLVTVST VL: DIVMTQAAPSVPVTPGESVSISCRSSKSPLHSNGNIYLYWFLQRPGQSPQLLIYRMSNLASGVPDRFSGSGSGTTFTLKISRVEAEDVGVYYCMQHLEYPYTFGGGTKLEIK
